Earlier results on 3 substances are cited in patent US12453725B2, “Treatment of inflammatory disease” (Celleron Therapeutics Limited, priority 2019, dated 2025).

The conditions of data set [1]: human, in vivo, cited from earlier work.
For data set [2] the following is noted: in vivo; cited from earlier work.
The conditions of data set [3]: human, in vivo; cited from earlier work.

As to “pembrolizumab: humanized IgG4 monoclonal antibody that binds the programmed cell death-1 receptor”, the “grade 3/4 diarrhoea, patients” value in data set [1] is given as 1%-2%. Besides, the “colitis, listed frequency of GI side effect” value in data set [2] is reported as “common”.
“nivolumab: human monoclonal antibody that blocks the interaction between PD-1 and its ligands, PD-L1 and PD-L2; IgG4 kappa immunoglobulin”: in data set [1], the “grade 3/4 diarrhoea, patients” value was 1%-2%. Besides, in data set [3], the abnormal liver tests result is reported as “clinical trials, between 7 patients in 100 had abnormal liver”; the diarrhoea or colitis entry is “nivolumab clinical trials, 13 patients in 100 developed”; the “disorders of hormone-producing glands” value is “trials, 10 patients in 100 developed disorders of hormone-”; the “immune-related colitis, patients” value is on record as 13%. Also, in data set [3], the kidney inflammation result was “nivolumab clinical trials, 3 patients in 100 developed kidney”; the lung inflammation result is “clinical trials, 3 patients in 100 developed lung”; the rash entry is recorded as “between 26 patients in 100 developed rash. Signs or”.
Take “ipilimumab: approved checkpoint inhibitor monoclonal antibody targeting CTLA-4”: in data set [1] (5 mg/kg), the “incidence of grade 3/4 colitis” value is recorded as 13%. For the same substance, in data set [1], the “enterocolitis (grade 3 or 4 symptoms and/or biopsy proven)” value is 21% and the “grade 3/4 diarrhoea, patients” value is recorded as 10%.
